Assay results: patent US20250019422A1 (MAX PLANCK GESELLSCHAFT ZUR F RDERUNG DER WISSENSCHAFTEN E V, published 2025)
Read-outs that look alike come from different tables or passages of the source.

Experiments:
B.1.617.2/Delta [1] = molecular target: B.1.617.2/Delta
[2] = molecular target: T1, RBD of the SARS-CoV-2 Omicron variant BA.2.75 (SARS-CoV-2 Omicron variant BA.2.75)
B.1.617.2/Delta [3] = molecular target: B.1.617.2/Delta; remark: listed apart in the source
[4] = molecular target: T1, RBD of the SARS-CoV-2 Omicron variant …; remark: listed apart in the source

Binder | Kd (B.1.617.2/Delta [1]) [nM] | Kd [2] [nM] | Kd (B.1.617.2/Delta [3]) [nM] | Kd [4] [nM]
Re32D03 (VHH) VHH: QVQLVESGGGLVQPGGSLRLSCAISGITLDYYAVGWFLQAPGKEREGISCMRNWDGRTVYAPSVKGRFTISSDNAKKMVYLEMDNLKSEDTGVYYCAAGPLPPGISCRIPTPLGYDDWGQGTQVTVSS | ≤ 0.01 | 0.35 |  | 
Re5D06 (VHH) VHH: QVQLVESGGGLVQPGGSLRLSCAASGITLDYYAIGWFRQAPGKEREGVSRIRSSDGSTNYADSVKGRFTMSRDNAKNTVYLQMNSLKPEDTAVYYCAYGPLTKYGSSWYWPYEYDYWGQGTQVTVSS |  |  | 0.2 | 
Re6H06 (VHH) VHH: QVQLVESGGGLVQPGGSLRLSCAASGVTLDYYAIGWFRQAPGKEREGVSCTSSSDGSTYYADSVKGRFTISRDNAKNTVYLQMNSLKPEDTGVYYCAVVPQTYYGGKYYSQCTANGMDYWGKGTLVTVSS |  |  | 0.1 | ≥ 1000
Re9B09 (VHH, also called ReB09) VHH: QVQLVESGGGLVQPGGSLRLSCAASGFTLDYYAIGWFRQAPGKEREGVSRISSSDGSTDYADSVKGRFTISRDNAKNTVYLQMNSLKPEDTAVYYCATVPGTYYSGNWYYTWHPEAVDYWGKGTQVTVSS | 0.3 | 2 |  | 
